Laboratory results reported in US8691225B2, “Antibodies against the ectodomain of ErbB3 and uses thereof” (Merrimack Pharmaceuticals, Inc., priority 2007, dated 2014).
Like-named read-outs stand apart in the source and are kept apart here.

Experiments:
MCF-7 cells = experiment: trans-well cell migration assay; assay type: cell-based, human; details: 8 uM Ab #6, 10% FBS chemoattractant, 16 hours
Procedure: The cells are then transferred to an upper chamber that is separated from a lower chamber by a collagen type I-coated membrane through which the cells can migrate. […] The chambers are incubated at 37° C. for 16 hours and then the cells that migrate through the membrane into the lower chamber are removed using a detachment buffer and incubated with a cell-binding fluorescent dye. Fluorescence is quantitated using a fluorescent plate reader.

ErbB3 = ErbB3 (Homo sapiens, UniProt P21860); experiment: Kinetic Exclusion Assay (KinExA); assay type: binding
[1] = test system: ErbB3 phosphorylation in ovarian AdrR cells; experiment: BTC or HRG induced ErbB3 phosphorylation in AdrR cells in vitro; assay type: cell-based, human
Procedure: Following pre incubation, the media are removed and the cells are stimulated for 5 minutes at 37° C., 5% CO2 with 50 nM BTC or 333 nM TGF-α. HRG controls (5 minutes, 5 nM), 10% serum and 0% serum controls are also used. Cells are washed with 1× cold PBS and lysed in 30 μl cold lysis buffer (M-PER buffer (Pierce) plus sodium vanadate (NaVO4, Sigma), 2-glycerophosphate, phenylarsine oxide, BpV and protease inhibitors) by incubating on ice for 30 minutes. Lysates are stored overnight at −80° C.

AdrR spheroids = experiment: spheroid growth assay; assay type: cell-based, human; details: 8 uM
Procedure: (§1) Subconfluent cells are trypsinized, counted, and resuspended in filtered medium. The cell concentration is adjusted to 100,000 cells/ml, and one 20 ul drop (containing 2000 cells) is added to each ring on the underside of the lid of a 96-well plate. The lids with these hanging droplets are then placed back on the original 96-well plate, which contained 100 ul of PBS in each well to maintain moisture. Four days after initial plating, the hanging droplets containing the spheroids are replated into new 96-well plates. This replating involves transferring the lid containing the hanging droplets to a fresh 1% agarose/RPMI-coated 96-well plate that contains 150 ul of medium per well. The plate and lid are then centrifuged together at 500 rpm for 1 minute to transfer the spheroid-containing drops from the lids to the wells. Plates are then further incubated at 37° C. in a humidified CO2 incubator. Spheroids are photographed in an inverted phase contrast microscope. A micrometer scale is also photographed at the same magnification to determine spheroid size. The diameter of the spheroids is determined using METAMORPH image analysis software (MDS Analytical Technologies).
(§2) The diameters of the spheroids are measured using light microscopy (10× objective) at day 1 and day 13.

DU145 spheroids = experiment: spheroid growth assay; assay type: cell-based, human; details: DU145, 8 uM, 3.4 nM HRG
Procedure: as §1, §2

[2] = test system: HGF induced ErbB3 phosphorylation in AdrR cells; experiment: HGF induced ErbB3 phosphorylation in AdrR cells; assay type: cell-based, human
Procedure: Various ligands are tested for inducement of ErBb3 phosphorylation. At least three ligands, HRG, BTC, and HGF, are able to stimulate ErbB3 induced phosphorylation in AdrR cells, while EGF can not. […] Further, as known in the art (see, e.g., Wallenius et al. (2000) Am J Pathol. 156 (3):821-9), enhanced HGF signaling has been reported in various epithelial and non-epithelial tumors.
c-MET-ErbB3 interactions also occur in AdrR cells carrying the wild type EGFR and is not dependent on amplified c-MET.

[3] = test system: Du145 (prostate) xenograft; experiment: xenograft tumor growth in nude mice; assay type: in vivo, mouse
[4] = test system: heregulin-mediated phosphorylation of ErbB3 and AKT in MALME-3M cells; experiment: heregulin-mediated signaling ELISA (pErbB3, pAKT); assay type: cell-based, human; details: for IC50: IgG2 isotype, 5 nM HRG
Procedure: (§3) MALME-3M cells and OVCAR8 cells are separately seeded in 96 well tissue culture plates (35,000 cells per well) and grown in RPMI-1640 media supplemented with antibiotics, 2 mM L-glutamine and 10% FBS for 24 hours at 37° C. and 5% carbon dioxide. Cells are serum-starved in RPMI-1640 media with antibiotics and 2 mM L-glutamine for 24 hours at 37° C. and 5% carbon dioxide. […] Controls are HRG without added antibody and untreated cells (no HRG and no Ab). Cells are washed with cold PBS then harvested with mammalian protein extract (M-PER) lysis buffer (Pierce, 78505) containing 150 mM NaCl, 5 mM sodium pyrophosphate (Sigma, 221368-100G), 10 uM bpV(phen) (Calbiochem, 203695), 50 μM oxophenylarsine (Calbiochem, 521000), 1 mM sodium orthovanadate (Sigma, 56508-10G), and protease inhibitor cocktail (Sigma, P2714). Cell lysates are diluted two-fold with 4% bovine serum albumin in PBST (0.2% tween-20), then analyzed by ELISA for phosphorylation of either ErbB3, or AKT (a downstream effector of ErbB3).
(§4) In order to test for AKT phosphorylation, lysates are run on an ELISA plate with a capture antibody specific to AKT and biotinylated detection antibody specific to phospho-serine 473 of phospho-AKT (pAKT). Signal is generated with streptavidin conjugated to horseradish-peroxidase reacted with SUPERSIGNAL ELISA Pico chemiluminescent substrate (Pierce, 37070). In order to assay for ErbB3 phosphorylation, lysates are run on an ELISA plate with a capture antibody specific for ErbB3 and an anti-phosphotyrosine detection antibody conjugated to horseradish-peroxidase. This is then reacted with the same chemiluminescent substrate. Luminescent signal on the ELISAs is measured using a luminometer.

[5] = test system: heregulin-mediated phosphorylation of ErbB3 and AKT in OVCAR8 cells; experiment: heregulin-mediated signaling ELISA (pErbB3, pAKT); assay type: cell-based, human; details: for IC50: IgG2 isotype, 5 nM HRG
Procedure: as §3, §4

B1: Ab #6: human anti-ErbB3 antibody from Fab-phage library, CDRs SEQ ID NOs:7-12; used as IgG1 and IgG2 isotypes; in phase I trials as MM-121 (antibody, V domains shown)
VH: EVQLLESGGGLVQPGGSLRLSCAASGFTFSHYVMAWVRQAPGKGLEWVSSISSSGGWTLYADSVKGRFTISRDNSKNTLYLQMNSLRAEDTAVYYCTRGLKMATIFDYWGQGTLVTVSS
VL: QSALTQPASVSGSPGQSITISCTGTSSDVGSYNVVSWYQQHPGKAPKLIIYEVSQRPSGVSNRFSGSKSGNTASLTISGLQTEDEADYYCCSYAGSSIFVIFGGGTKVTVL
MCF-7 cells
  inhibition of FBS induced cell migration: inhibits the FBS induced cell migration
ErbB3
  dissociation rate: 0.00011 s⁻¹
[1]; BTC stimulation
  inhibition of betacellulin-mediated phosphorylation of ErbB3: significantly inhibited
[1]; HRG stimulation
  inhibition of heregulin-mediated phosphorylation of ErbB3: significantly inhibited
AdrR spheroids; 3.4 nM HRG
  inhibition of HRG-induced spheroid growth: inhibits the HRG effect
AdrR spheroids; day 1 to day 13
  inhibition of spheroid growth: inhibits spheroid growth in AdrR cells
DU145 spheroids
  inhibition of HRG-induced spheroid growth: inhibits HRG induced spheroid growth
[2]; AdrR cells
  inhibition of HGF induced ErbB3 phosphorylation: inhibits HGF induced ErbB3 phosphorylation
[2]; HGF induced ErbB3 phosphorylation in AdrR cells (FIG. 28)
  IC50: 0.244 nM
[3]; 300 ug every three days (Q3d), p<0.05
  inhibition of tumor growth: significant inhibition of tumor growth
[3]; 600 ug Q3d versus 300 ug
  inhibition of tumor growth: further elevated
[4]; FIGS. 16A-D, MALME-3M cells and OVCAR8 cells
  extent of inhibition of phosphorylation of AKT and ErbB3: essentially complete inhibiton
[4]; MALME-3M cells
  inhibition of heregulin-mediated signaling: potent inhibitor of heregulin-mediated signaling
[4]; MALME-3M cells, read-out: IC50, heregulin-mediated phosphorylation of ErbB3
  IC50: 15 nM
[4]; MALME-3M cells, read-out: IC50, phosphorylation of AKT
  IC50: 11 nM
[5]
  inhibition of heregulin-mediated signaling: potent inhibitor of heregulin-mediated signaling
[5]; read-out: IC50, heregulin-mediated phosphorylation of ErbB3
  IC50: 24 nM
[5]; read-out: IC50, phosphorylation of AKT
  IC50: 67 nM
